Sequences and labels used below:
B1: WW domain-containing oxidoreductase (Homo sapiens), Q9NZC7 (parent)
chain: MAALRYAGLDDTDSEDELPPGWEERTTKDGWVYYANHTEEKTQWEHPKTGKRKRVAGDLPYGWEQETDENGQVFFVDHINKRTTYLDPRLAFTVDDNPTKPTTRQRYDGSTTAMEILQGRDFTGKVVVVTGANSGIGFETAKSFALHGAHVILACRNMARASEAVSRILEEWHKAKVEAMTLDLALLRSVQHFAEAFKAKNVPLHVLVCNAATFALPWSLTKDGLETTFQVNHLGHFYLVQLLQDVLCRSAPARVIVVSSESHRFTDINDSLGKLDFSRLSPTKNDYWAMLAYNRSKLCNILFSNELHRRLSPRGVTSNAVHPGNMMYSNIHRSWWVYTLLFTLARPFTKSMQQGAATTVYCAAVPELEGLGGMYFNNCCRCMPSPEAQSEETARTLWALSERLIQERLGSQSG
partner: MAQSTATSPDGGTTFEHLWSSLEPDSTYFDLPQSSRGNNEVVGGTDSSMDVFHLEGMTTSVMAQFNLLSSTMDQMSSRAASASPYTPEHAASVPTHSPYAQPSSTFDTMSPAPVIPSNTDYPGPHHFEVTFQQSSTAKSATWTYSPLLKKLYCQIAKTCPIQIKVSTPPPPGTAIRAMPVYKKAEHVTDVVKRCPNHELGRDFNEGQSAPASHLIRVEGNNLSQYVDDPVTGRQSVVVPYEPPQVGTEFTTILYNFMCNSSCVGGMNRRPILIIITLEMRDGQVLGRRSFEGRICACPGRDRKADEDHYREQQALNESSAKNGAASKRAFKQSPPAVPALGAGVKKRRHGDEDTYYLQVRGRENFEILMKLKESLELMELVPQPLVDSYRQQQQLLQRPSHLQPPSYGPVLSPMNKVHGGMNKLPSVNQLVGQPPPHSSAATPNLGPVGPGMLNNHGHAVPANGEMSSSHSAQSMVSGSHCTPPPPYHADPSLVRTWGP
B2: Tumor protein p73 (Homo sapiens), O15350-2 (parent)
chain: B1 partner
partner: B1 chain

The variants in the first assay derive from B1. To be noted: with TP73, O15350-2.
On to Y33R, for which the “effect of a mutation on the interaction” value is “decreasing interaction strength”. Same read-out and setting: next, Y33F: “with no effect”.

The variants in a further assay derive from B1. Conditions: with TP73, O15350-2. This is another data set of the same source.
Turning to Y33R, the “effect of a mutation on the interaction” value was “disrupting interaction strength”. Still for that read-out and setting: the result for Y61R reads “with no effect”.

Variants of B2 are the subject of a further assay. Conditions: with wwox_human WWOX, Q9NZC7.
Consider Y487A, for which the “effect of a mutation on the interaction” value is recorded as “disrupting interaction strength”.

The values are drawn from IntAct's records for PubMed 15070730.
